Patent US20250099379A1, “NEW SYSTEM FOR THE TOPICAL PHARMACOLOGICAL RELEASE OF AN ACTIVE INGREDIENT” (UNIVERSITÀ DEGLI STUDI DI PADOVA, priority 2022, published 2025)

B1: SB3: human SerpinB3 protease inhibitor protein, produced recombinantly; incorporated in wet silica sol-gel (8% SiO2) (protein, UniProt P29508 1-390, looked up)
Serpin B3: MNSLSEANTKFMFDLFQQFRKSKENNIFYSPISITSALGMVLLGAKDNTAQQIKKVLHFDQVTENTTGKAATYHVDRSGNVHHQFQKLLTEFNKSTDAYELKIANKLFGEKTYLFLQEYLDAIKKFYQTSVESVDFANAPEESRKKINSWVESQTNEKIKNLIPEGNIGSNTTLVLVNAIYFKGQWEKKFNKEDTKEEKFWPNKNTYKSIQMMRQYTSFHFASLEDVQAKVLEIPYKGKDLSMIVLLPNEIDGLQKLEEKLTAEKLMEWTSLQNMRETRVDLHLPRFKVEESYDLKDTLRTMGMVDIFNGDADLSGMTGSRGLVLSGVLHKAFVEVTEEGAEAAAATAVVGFGSSPTSTNEEFHCNHPFLFFIRQNKTNSILFYGRFSSP

Key:
[1] = Release of BSA-FITC from wet silica sol-gel suspended in 3% HPMC hydrogel or buffer (dialysis tubes); assay type: physicochemical; conditions: BSA-FITC in silica hydrogel (SiO2 8%), equal volume of release buffer or 3% HPMC; PBST+0.1% BSA at 37° C.
Protocol: In a preliminary test it was evaluated if the use of hydrogel of 3% w/v HPMC as diluent for the suspension of silica nanoparticles influences the release of a protein incorporated therein. To this purpose, preparations constituted by silica hydrogel having incorporated the model protein BSA-FITC, suspended in an equal volume of release buffer or t 3% HPMC, were inserted in dialysis tubes (cut-off 100 KDa) and immersed in PBST+0.1% BSA at 37° C. At programmed time points the content of BSA-FITC was quantified in the acceptor solution by fluorescence spectroscopy.

[2] = Release of SB3 from wet silica sol-gel into buffer (ELISA quantification); assay type: physicochemical; conditions: wet silica sol-gel (8% SiO2 w/w), crushed manually; gels loaded at SB3 5 and 50 μg/mL; immersion in buffer at 37
Protocol: 200 μl of the prepared product containing SB3 in silica hydrogel were suspended in 10 mL of phosphate buffer 100 mM, 0.05% Tween 20, 0.1% BSA, pH 6.0 and incubated at 37° C. under slight stirring. At defined time moments (0 h, 5 h and 24 h) the sample was centrifuged (1390 g) and a small portion of supernatant (250 μl) was removed by titration of SB3 and replaced with fresh buffer. The compound was then re-suspended in the supernatant by a slight vortex and the incubation at 37° C. was continued until the subsequent moment. The concentration of SB3 in the supernatants was quantified by sandwich ELISA (kit HEPA Lisa, Xeptagen S.p.A, Vega Park, Venice) by following the manufacturer's instructions. […] After washing, the concentration of SB3 was detected by incubation with 100 μL of anti-SB3 secondary Ab conjugated with streptavidin HRP (0.5 μg/mL). The plate was developed with a solution of substrate 3,3′,5,5′-tetramethylbenzidin (TMB) ready for use. The reaction was interrupted with 1 mol/L of HCl (100 μL) and the absorbance at 450 nm was measured on a reader of microplates (Victor×3; Perkin Elmer, Waltham, MA, USA). […]

MDCK cells = assay: Scatter assay on MDCK cells; assay type: cell-based, canine; conditions: solution of release from gel at SB3 50 μg/mL; similar to recombinant SB3 positive control (CTR+)
Protocol: The results were represented graphically by tracing the ratio between the amount of protein released in each time point (Mt) and the total protein (Mtot) incorporated in function of time. The released functional capability of SB3 was verified by scatter assay, as previously reported (Quarta et al. J Pathol 2010; 221:343-356). In detail, canine kidney cells Madin-Darby (MDCK) (5×10^3 cells/well), were treated with two different dilutions of SB3 released by the wet silica microspheres for 5 and 24 hours. The cells were fixed in 4% formaldehyde, coloured with blue solution of Coomassie and the scattering effect was analysed by using the Axiovert 200M microscope (Carl Zeiss Microscopy GmbH, Germania). As positive control, SB3 recombinant at 200 ng/ml was used.

Molecule | Release profiles in presence or absence of HPMC hydrogel [1] | Mechanism of SB3 release (Mt/Mtot % vs square root of time, linear correlation) [2] | Scattering of cohesive cell colonies (MDCK cells)
BSA-FITC: model protein BSA-FITC incorporated in silica hydrogel | almost superimposable |  | 
B1 |  | takes place through a diffusion process | induced the 20 time-depending scattering of strictly cohesive colonies of MDK cells
